Results published in patent US20200199204A1 (UNITED STATES OF AMERICA AS REPRESENTED BY THE SECRETARY …, published 2020).

Assays:
Experiment in all cases: cell-based or functional assay
[1] = biological target: HIV-1 Env of Q842.d12 (HIV-1)
[2] = biological target: HIV-1 Env of 3016.V5.c36 (HIV-1)
[3] = biological target: HIV-1 Env of Q461.e2 (HIV-1)
[4] = biological target: HIV-1 Env of AC10.29 (HIV-1)
[5] = biological target: HIV-1 Env of C1080.c3 (HIV-1)
[6] = biological target: HIV-1 Env of WITO.33 (HIV-1)
[7] = biological target: HIV-1 Env of MB201 (HIV-1)
[8] = biological target: HIV-1 Env of PVO.04 (HIV-1)
[9] = biological target: HIV-1 Env of DU422.01 (HIV-1)
[10] = biological target: HIV-1 Env of REJO.67 (HIV-1)
[11] = biological target: HIV-1 Env of 0260.v5.c36 (HIV-1)
[12] = biological target: HIV-1 Env of Q259.d2.17 (HIV-1)
[13] = biological target: HIV-1 Env of TRJO.58 (HIV-1)
[14] = biological target: HIV-1 Env of QH0692.42 (HIV-1)
[15] = biological target: HIV-1 Env of ZM249.1 (HIV-1)
[16] = biological target: HIV-1 Env of MB539.2B7 (HIV-1)
[17] = biological target: HIV-1 Env of DU172.17 (HIV-1)
[18] = biological target: HIV-1 Env of UG037.8 (HIV-1)
[19] = biological target: HIV-1 Env of 6535.3 (HIV-1)
[20] = biological target: HIV-1 Env of Q23.17 (HIV-1)
[21] = biological target: HIV-1 Env of RHPA.7 (HIV-1)
[22] = biological target: HIV-1 Env of BG505.w6m (HIV-1)
[23] = biological target: HIV-1 Env of CAAN.A2 (HIV-1)
[24] = biological target: HIV-1 Env of CAP256.PI (HIV-1)
[25] = biological target: HIV-1 Env of ZM135.10a (HIV-1)
[26] = biological target: HIV-1 Env of ZM53.12 (HIV-1)
[27] = biological target: HIV-1 Env of ZM109.4 (HIV-1)
[28] = biological target: HIV-1 Env of CAP256.SU (HIV-1)
[29] = biological target: HIV-1 Env of RW020.2 (HIV-1)
[30] = biological target: HIV-1 Env of DU156.12 (HIV-1)
[31] = biological target: HIV-1 Env of CAP45.G3 (HIV-1)
[32] = biological target: HIV-1 Env of ZM197.7 (HIV-1)
[33] = biological target: HIV-1 Env of 6405.v4.c34 (HIV-1)
[34] = biological target: HIV-1 Env of Q769.d22 (HIV-1)
[35] = biological target: HIV-1 Env of CM244.ec1 (HIV-1)
[36] = biological target: HIV-1 Env of CAP210.E8 (HIV-1)
[37] = biological target: HIV-1 Env of CAP244.D3 (HIV-1)
[38] = biological target: HIV-1 Env of THRO.18 (HIV-1)
[39] = biological target: HIV-1 Env of Q168.a2 (HIV-1)
[40] = biological target: HIV-1 Env of 191821.E6.1 (HIV-1)
[41] = biological target: HIV-1 Env of 96ZM651.02 (HIV-1)
[42] = biological target: HIV-1 Env of TRO.11 (HIV-1)
[43] = biological target: HIV-1 Env of KER2018.11 (HIV-1)
[44] = biological target: HIV-1 Env of SC422.8 (HIV-1)
[45] = biological target: HIV-1 Env of KER2008.12 (HIV-1)
[46] = biological target: HIV-1 Env of ZM214.15 (HIV-1)

B1: CAP256-VRC26.08 (antibody, V domains shown)
VH: EVQLVESGGGVVQPGRSLTLSCAASQFTFSNYGMHWVRQAPGKGLEWVASVSNDGTKKYHGDSVWGRFTISRDNSKNTLFLQMSSLRAEDTAVYFCVRDQREDECEEWWSDYYDFGRELPCRKFRGLGLAGIFDIWGHGTMVTVSS
VL: QSALTQPPSVSAAPGQKVTISCSGNSSNIGNNFVSWYQQVPGTAPKLLLYETYRRPSGIPDRFSGSKSGTSATLAITGLQTGDEADYYCTVWGVRKGVGAVFGTGTKVTVLG
neutralization IC50 [1]: 40.4 µg/mL | neutralization IC50 [2]: 0.013 µg/mL | neutralization IC50 [3]: 0.969 µg/mL | neutralization IC50 [4]: > 50 µg/mL | neutralization IC50 [5]: 0.012 µg/mL | neutralization IC50 [6]: > 50 µg/mL | neutralization IC50 [7]: > 50 µg/mL | neutralization IC50 [8]: 11.8 µg/mL | neutralization IC50 [9]: 0.008 µg/mL | neutralization IC50 [10]: > 50 µg/mL | neutralization IC50 [11]: > 50 µg/mL | neutralization IC50 [12]: 0.009 µg/mL | neutralization IC50 [13]: > 50 µg/mL | neutralization IC50 [14]: > 50 µg/mL | neutralization IC50 [15]: 0.076 µg/mL | neutralization IC50 [16]: 31.7 µg/mL | neutralization IC50 [17]: > 50 µg/mL | neutralization IC50 [18]: > 50 µg/mL | neutralization IC50 [19]: > 50 µg/mL | neutralization IC50 [20]: 13.3 µg/mL | neutralization IC50 [21]: > 50 µg/mL | neutralization IC50 [22]: 0.143 µg/mL | neutralization IC50 [23]: > 50 µg/mL | neutralization IC50 [24]: > 50 µg/mL | neutralization IC50 [25]: > 50 µg/mL | neutralization IC50 [26]: 0.004 µg/mL | neutralization IC50 [27]: > 50 µg/mL | neutralization IC50 [28]: 0.003 µg/mL | neutralization IC50 [29]: > 50 µg/mL | neutralization IC50 [30]: 0.059 µg/mL | neutralization IC50 [31]: 4.69 µg/mL | neutralization IC50 [32]: 0.008 µg/mL | neutralization IC50 [33]: > 50 µg/mL | neutralization IC50 [34]: > 50 µg/mL | neutralization IC50 [35]: 1.09 µg/mL | neutralization IC50 [36]: 0.006 µg/mL | neutralization IC50 [37]: > 50 µg/mL | neutralization IC50 [38]: > 50 µg/mL | neutralization IC50 [39]: 0.256 µg/mL | neutralization IC50 [40]: 0.37 µg/mL | neutralization IC50 [41]: 2.82 µg/mL | neutralization IC50 [42]: > 50 µg/mL | neutralization IC50 [43]: 0.003 µg/mL | neutralization IC50 [44]: > 50 µg/mL | neutralization IC50 [45]: > 50 µg/mL | neutralization IC50 [46]: > 50 µg/mL
